B1: GpH7-A5/GpH7-B3 variant P238_10E/GpL16-k0 (antibody, human IgG1, kappa)
heavy 1: not shown
heavy 2: not shown
light: DIVMTQSPLSLPVTPGEPASISCQASESLVHSNRNTYLHWYLQKPGQSPQLLIYKVSNRFSGVPDRFSGSGSGTDFTLKISRVEAEDVGVYYCSQNTHVPPTFGQGTKVEIERTVAAPSVFIFPPSDEQLKSGTASVVCLLNNFYPREAKVQWKVDNALQSGNSQESVTEQDSKDSTYSLSSTLTLSKADYEKHKVYACEVTHQGLSSPVTKSFNRGEC
notes: Heterodimerized anti-glypican-3 IgG1; alteration in the GpH7-B3 chain only; also called He Ab
B2: GpH7-B3 variant Y300_01G/GpL16-k0 (homodimerized antibody, Ho Ab) (antibody, human IgG1, kappa)
heavy: not shown
light: B1 light
notes: Anti-glypican-3 IgG1 (G1d with K439E); same alteration in both H chains
B3: GpH7-A5/GpH7-B3 variant Y300_01G/GpL16-k0 (heterodimerized antibody, He Ab) (antibody, human IgG1, kappa)
heavy 1: not shown
heavy 2: not shown
light: B1 light
notes: Anti-glypican-3 IgG1; alteration only in the GpH7-B3 (K439E) chain; other H chain is GpH7-A5 (D356K/H435R)
B4: GpH7-B3 variant Y296_12R/GpL16-k0 (homodimerized antibody, Ho Ab) (antibody, human IgG1, kappa)
heavy: not shown
light: B1 light
notes: as for B2
B5: GpH7-B3 variant Y300_11K/GpL16-k0 (homodimerized antibody, Ho Ab) (antibody, human IgG1, kappa)
heavy: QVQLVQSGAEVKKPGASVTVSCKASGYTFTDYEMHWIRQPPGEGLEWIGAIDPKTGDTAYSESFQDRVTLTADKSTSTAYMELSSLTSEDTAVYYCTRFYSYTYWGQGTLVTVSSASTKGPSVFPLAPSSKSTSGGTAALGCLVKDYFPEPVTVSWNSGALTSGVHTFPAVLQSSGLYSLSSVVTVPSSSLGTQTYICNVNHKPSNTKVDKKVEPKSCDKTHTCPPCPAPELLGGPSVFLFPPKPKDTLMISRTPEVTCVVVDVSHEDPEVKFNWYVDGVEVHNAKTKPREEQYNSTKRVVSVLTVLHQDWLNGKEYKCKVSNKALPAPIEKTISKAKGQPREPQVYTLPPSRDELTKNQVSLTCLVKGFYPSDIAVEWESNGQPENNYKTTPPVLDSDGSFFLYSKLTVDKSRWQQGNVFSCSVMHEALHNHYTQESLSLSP
light: B1 light
notes: as for B2
B6: GpH7-B3 variant Y296_11K/GpL16-k0 (homodimerized antibody, Ho Ab) (antibody, human IgG1, kappa)
heavy: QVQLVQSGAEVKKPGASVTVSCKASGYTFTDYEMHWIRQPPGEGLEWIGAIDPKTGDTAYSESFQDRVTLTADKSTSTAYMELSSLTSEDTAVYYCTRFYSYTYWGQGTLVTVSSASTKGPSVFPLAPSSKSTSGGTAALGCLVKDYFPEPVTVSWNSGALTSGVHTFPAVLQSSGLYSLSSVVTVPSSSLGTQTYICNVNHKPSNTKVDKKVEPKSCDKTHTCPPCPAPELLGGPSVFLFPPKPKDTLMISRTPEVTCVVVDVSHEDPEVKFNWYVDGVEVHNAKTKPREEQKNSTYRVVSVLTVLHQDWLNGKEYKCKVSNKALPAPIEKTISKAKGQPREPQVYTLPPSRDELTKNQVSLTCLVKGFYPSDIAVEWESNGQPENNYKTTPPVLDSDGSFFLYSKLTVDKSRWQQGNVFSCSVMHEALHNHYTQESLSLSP
light: B1 light
notes: as for B2
B7: GpH7-A5/GpH7-B3 variant T335_18N/GpL16-k0 (heterodimerized antibody, He Ab) (antibody, human IgG1, kappa)
heavy 1: not shown
heavy 2: not shown
light: B1 light
notes: as for B3
B8: GpH7-B3 variant T335_19Q/GpL16-k0 (homodimerized antibody, Ho Ab) (antibody, human IgG1, kappa)
heavy: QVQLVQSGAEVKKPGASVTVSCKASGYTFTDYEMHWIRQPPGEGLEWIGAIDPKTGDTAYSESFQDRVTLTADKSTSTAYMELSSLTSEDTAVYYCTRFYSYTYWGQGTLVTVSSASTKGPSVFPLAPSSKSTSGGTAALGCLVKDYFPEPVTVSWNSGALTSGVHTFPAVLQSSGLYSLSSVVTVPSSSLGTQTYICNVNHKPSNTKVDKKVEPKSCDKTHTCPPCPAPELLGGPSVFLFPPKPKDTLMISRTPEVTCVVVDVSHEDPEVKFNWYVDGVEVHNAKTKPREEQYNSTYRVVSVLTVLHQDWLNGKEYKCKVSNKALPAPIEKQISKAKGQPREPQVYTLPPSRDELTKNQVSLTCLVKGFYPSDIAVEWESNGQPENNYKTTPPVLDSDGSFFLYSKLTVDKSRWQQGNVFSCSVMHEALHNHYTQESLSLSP
light: B1 light
notes: as for B2
B9: GpH7-B3 variant Y300_19Q/GpL16-k0 (homodimerized antibody, Ho Ab) (antibody, human IgG1, kappa)
heavy: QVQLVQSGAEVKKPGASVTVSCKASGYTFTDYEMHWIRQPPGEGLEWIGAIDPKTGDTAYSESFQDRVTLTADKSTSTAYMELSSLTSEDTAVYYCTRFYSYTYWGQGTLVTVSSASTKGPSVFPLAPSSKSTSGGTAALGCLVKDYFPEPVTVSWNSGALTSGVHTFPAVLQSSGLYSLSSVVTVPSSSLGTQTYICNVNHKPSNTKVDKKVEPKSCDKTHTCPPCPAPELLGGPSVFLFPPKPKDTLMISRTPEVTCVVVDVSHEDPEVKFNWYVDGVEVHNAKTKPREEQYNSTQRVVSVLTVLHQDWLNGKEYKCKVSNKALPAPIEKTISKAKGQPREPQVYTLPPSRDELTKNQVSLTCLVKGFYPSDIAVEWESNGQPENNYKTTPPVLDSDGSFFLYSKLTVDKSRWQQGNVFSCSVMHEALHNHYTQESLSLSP
light: B1 light
notes: as for B2
B10: GpH7-A5/GpH7-B3 variant T335_19Q/GpL16-k0 (heterodimerized antibody, He Ab) (antibody, human IgG1, kappa)
heavy 1: not shown
heavy 2: not shown
light: B1 light
notes: as for B3
B11: GpH7-A5/GpH7-B3 variant Y296_11K/GpL16-k0 (heterodimerized antibody, He Ab) (antibody, human IgG1, kappa)
heavy 1: not shown
heavy 2: not shown
light: B1 light
notes: as for B3
B12: GpH7-B3 variant Y296_06M/GpL16-k0 (homodimerized antibody, Ho Ab) (antibody, human IgG1, kappa)
heavy: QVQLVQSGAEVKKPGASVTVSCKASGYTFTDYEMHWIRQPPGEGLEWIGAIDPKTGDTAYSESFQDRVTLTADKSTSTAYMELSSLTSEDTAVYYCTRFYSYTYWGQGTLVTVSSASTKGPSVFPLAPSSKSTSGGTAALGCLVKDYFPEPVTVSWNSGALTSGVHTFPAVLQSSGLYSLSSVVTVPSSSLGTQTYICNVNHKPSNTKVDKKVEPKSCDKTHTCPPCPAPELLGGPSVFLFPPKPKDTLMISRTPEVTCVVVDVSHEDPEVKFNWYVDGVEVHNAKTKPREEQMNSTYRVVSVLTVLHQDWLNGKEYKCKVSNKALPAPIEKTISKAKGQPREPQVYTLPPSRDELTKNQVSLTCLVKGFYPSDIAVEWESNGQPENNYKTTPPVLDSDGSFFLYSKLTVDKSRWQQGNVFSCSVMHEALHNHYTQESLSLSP
light: B1 light
notes: as for B2
B13: GpH7-B3 variant Y300_14T/GpL16-k0 (homodimerized antibody, Ho Ab) (antibody, human IgG1, kappa)
heavy: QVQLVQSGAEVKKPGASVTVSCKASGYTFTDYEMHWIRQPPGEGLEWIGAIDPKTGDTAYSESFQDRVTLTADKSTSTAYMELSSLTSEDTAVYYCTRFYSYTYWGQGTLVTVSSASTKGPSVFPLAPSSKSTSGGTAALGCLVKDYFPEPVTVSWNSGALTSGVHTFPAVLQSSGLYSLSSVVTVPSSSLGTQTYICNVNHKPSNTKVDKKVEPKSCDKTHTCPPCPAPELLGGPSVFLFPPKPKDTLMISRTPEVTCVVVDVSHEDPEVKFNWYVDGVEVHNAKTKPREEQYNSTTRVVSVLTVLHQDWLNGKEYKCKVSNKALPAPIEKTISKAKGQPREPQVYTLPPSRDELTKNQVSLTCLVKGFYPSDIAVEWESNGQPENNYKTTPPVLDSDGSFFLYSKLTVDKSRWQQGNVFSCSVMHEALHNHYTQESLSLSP
light: B1 light
notes: as for B2
B14: GpH7-B3 variant Y296_13S/GpL16-k0 (homodimerized antibody, Ho Ab) (antibody, human IgG1, kappa)
heavy: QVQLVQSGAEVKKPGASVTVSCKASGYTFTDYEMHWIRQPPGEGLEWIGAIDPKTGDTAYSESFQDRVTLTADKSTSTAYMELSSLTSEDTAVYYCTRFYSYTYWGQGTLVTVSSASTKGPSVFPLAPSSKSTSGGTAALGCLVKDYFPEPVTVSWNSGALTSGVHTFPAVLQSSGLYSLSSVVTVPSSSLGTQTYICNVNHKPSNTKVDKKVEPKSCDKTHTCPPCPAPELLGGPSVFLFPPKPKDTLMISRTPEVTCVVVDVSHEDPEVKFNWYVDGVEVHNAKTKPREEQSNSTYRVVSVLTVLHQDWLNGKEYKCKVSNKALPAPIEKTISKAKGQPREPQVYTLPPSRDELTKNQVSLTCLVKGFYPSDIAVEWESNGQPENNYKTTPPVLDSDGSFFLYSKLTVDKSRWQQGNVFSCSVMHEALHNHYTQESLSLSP
light: B1 light
notes: as for B2
B15: GpH7-A5/GpH7-B3 variant S239_01G/GpL16-k0 (antibody, human IgG1, kappa)
heavy 1: not shown
heavy 2: not shown
light: B1 light
notes: as for B1
B16: GpH7-B3 variant Y300_06M/GpL16-k0 (homodimerized antibody, Ho Ab) (antibody, human IgG1, kappa)
heavy: not shown
light: B1 light
notes: as for B2
B17: GpH7-B3 variant Y300_13S/GpL16-k0 (homodimerized antibody, Ho Ab) (antibody, human IgG1, kappa)
heavy: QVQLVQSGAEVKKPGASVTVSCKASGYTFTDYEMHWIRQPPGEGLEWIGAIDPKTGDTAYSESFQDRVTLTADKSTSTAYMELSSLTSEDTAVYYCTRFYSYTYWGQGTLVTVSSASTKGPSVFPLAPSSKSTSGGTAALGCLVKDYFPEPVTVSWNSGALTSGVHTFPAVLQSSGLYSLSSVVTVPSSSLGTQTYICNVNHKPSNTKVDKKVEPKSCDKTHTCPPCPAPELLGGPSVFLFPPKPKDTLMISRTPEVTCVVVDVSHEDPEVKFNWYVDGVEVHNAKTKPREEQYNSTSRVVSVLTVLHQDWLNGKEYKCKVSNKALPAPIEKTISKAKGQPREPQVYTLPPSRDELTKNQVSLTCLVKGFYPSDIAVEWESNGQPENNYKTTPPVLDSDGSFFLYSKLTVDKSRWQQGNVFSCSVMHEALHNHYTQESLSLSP
light: B1 light
notes: as for B2
B18: GpH7-A5/GpH7-B3 variant P238_15Y/GpL16-k0 (antibody, human IgG1, kappa)
heavy 1: not shown
heavy 2: not shown
light: B1 light
notes: as for B1
B19: GpH7-B3 variant Y300_20W/GpL16-k0 (homodimerized antibody, Ho Ab) (antibody, human IgG1, kappa)
heavy: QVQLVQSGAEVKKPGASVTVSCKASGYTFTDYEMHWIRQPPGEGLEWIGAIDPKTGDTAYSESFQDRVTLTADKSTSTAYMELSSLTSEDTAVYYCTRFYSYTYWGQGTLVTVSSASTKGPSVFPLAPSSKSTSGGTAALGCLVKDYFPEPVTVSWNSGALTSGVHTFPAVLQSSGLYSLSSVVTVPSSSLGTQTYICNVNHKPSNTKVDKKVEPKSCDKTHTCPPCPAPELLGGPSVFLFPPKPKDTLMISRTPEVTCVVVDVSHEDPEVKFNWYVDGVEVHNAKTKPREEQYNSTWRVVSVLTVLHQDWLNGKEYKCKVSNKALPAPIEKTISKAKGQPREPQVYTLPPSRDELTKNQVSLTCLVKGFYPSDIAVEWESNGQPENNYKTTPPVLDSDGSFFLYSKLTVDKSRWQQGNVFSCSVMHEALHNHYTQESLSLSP
light: B1 light
notes: as for B2
B20: GpH7-B3 variant Y296_19Q/GpL16-k0 (homodimerized antibody, Ho Ab) (antibody, human IgG1, kappa)
heavy: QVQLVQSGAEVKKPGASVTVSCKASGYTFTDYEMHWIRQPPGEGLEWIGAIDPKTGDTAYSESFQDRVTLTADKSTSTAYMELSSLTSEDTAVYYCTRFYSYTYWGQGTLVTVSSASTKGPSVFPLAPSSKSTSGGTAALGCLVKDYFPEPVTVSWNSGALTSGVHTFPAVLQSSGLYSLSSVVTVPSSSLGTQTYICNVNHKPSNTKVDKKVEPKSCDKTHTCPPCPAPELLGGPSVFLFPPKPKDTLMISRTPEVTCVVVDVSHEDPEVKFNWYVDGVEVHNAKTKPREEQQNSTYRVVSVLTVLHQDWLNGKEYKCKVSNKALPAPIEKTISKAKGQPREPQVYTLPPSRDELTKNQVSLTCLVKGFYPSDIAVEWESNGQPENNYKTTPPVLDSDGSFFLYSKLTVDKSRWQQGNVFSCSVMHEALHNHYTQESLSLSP
light: B1 light
notes: as for B2

How the values were obtained:
[1] = target: T1, FcγRIIb (human, UniProt P31994 43-217); test: SPR (Biacore), antibody captured, FcγR as analyte; relative to GpH7-A5/GpH7-B3/GpL16-k0 = 100
T1 construct: extracellular domain; Soluble extracellular domain with C-terminal His tag, used as analyte in Biacore; also called FcgRIIb; 2b; not shown: His tag attached to the C terminus
T1 sequence (looked up): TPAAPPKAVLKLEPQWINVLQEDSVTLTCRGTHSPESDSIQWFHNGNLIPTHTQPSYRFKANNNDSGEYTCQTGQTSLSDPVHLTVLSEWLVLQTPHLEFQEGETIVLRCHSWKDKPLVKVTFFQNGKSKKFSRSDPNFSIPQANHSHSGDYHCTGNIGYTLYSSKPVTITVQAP

[2] = target: T2, FcγRIa (human, UniProt P12314 16-292); test: as above
T2 construct: extracellular domain; Soluble extracellular domain with C-terminal His tag, used as analyte in Biacore; also called FcgRI; 1a; not shown: His tag attached to the C terminus
T2 sequence (P12314 16-292): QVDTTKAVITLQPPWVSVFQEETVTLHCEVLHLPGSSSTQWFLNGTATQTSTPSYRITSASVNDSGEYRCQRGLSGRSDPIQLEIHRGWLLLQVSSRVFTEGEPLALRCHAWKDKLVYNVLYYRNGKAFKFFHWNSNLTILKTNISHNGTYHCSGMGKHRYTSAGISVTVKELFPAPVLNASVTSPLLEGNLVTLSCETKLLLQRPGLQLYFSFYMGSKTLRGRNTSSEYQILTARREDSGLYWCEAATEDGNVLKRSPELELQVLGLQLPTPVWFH

[3] = target: T2, FcγRIa; test: SPR (Biacore); He/Con_1a divided by He/Con_2b (binding to FcγRIa against binding to FcγRIIb)
Experimental: The heterodimerized antibodies He Abs in which one of the H chains was introduced with an alteration were assayed for their binding activities to each activating FcγR and inhibitory FcγR according to the method described in Example 4. […] The activating FcγRs in FIGS. 26, 27, 28, and 29 are FcγRIa, FcγRIIa (R), FcγRIIa (H), and FcγRIIIa, respectively.
(§1) Analysis of interaction between objective antibody and the FcγR was carried out using Biacore T100 (GE Healthcare). HBS-EP+ (GE Healthcare) was used as the running buffer, and the measurement temperature was set to 25° C. Chips produced by immobilizing the antigen peptide by the amine coupling method to a Series S Sencor Chip CM5 (GE Healthcare), or alternatively, chips produced by allowing preliminarily biotinylated antigen peptides to interact with and immobilize onto a Series S Sensor Chip SA (certified) (GE Healthcare) were used. Antibodies of interest were captured onto an antigen peptide-immobilized chip, and allowed to interact to each FcγR diluted with running buffer. To regenerate and repeatedly use the chip, the antibodies captured on the chip were washed off by reacting 10 mM glycine-HCl, pH 1.5.

[4] = target: T3, FcγRIa (human, UniProt P12314 16-292); test: SPR (Biacore), antibody captured on antigen-peptide chip, FcγRIa as analyte; binding activity relative to control GpH7-B3/GpL16-k0 (HoCon Ab) x100
T3 construct: extracellular domain; Soluble extracellular domain with C-terminal His tag, expressed in FreeStyle293 cells; analyte in Biacore; also called FcgRI; CD64; not shown: His tag attached to the C terminus
Experimental: as §1
T3 sequence (P12314 16-292): as above

[5] = target: T3, FcγRIa; test: SPR (Biacore), antibody captured on antigen-peptide chip, FcγRIa as analyte; binding activity relative to control GpH7-A5/GpH7-B3/GpL16-k0 (HeCon Ab) x100
Experimental: as §1

Binder | Ho/Con_1a [4] | other results
B1 | – | He/Con_2b [1]: 232 % of control (=100); He/Con_1a [2]: 102 % of control (=100); He_1a/2b (Ia/IIb) [3]: 0.44 ratio
B2 | 109 % of control (=100) | –
B3 | – | He/Con_1a [5]: 116 % of control (=100)
B4 | 103 % of control (=100) | –
B5 | 101 % of control (=100) | –
B6 | 102 % of control (=100) | –
B7 | – | He/Con_1a [5]: 106 % of control (=100)
B8 | 105 % of control (=100) | –
B9 | 110 % of control (=100) | –
B10 | – | He/Con_1a [5]: 105 % of control (=100)
B11 | – | He/Con_1a [5]: 105 % of control (=100)
B12 | 104 % of control (=100) | –
B13 | 110 % of control (=100) | –
B14 | 105 % of control (=100) | –
B15 | – | He/Con_2b [1]: 144 % of control (=100); He/Con_1a [2]: 101 % of control (=100); He_1a/2b (Ia/IIb) [3]: 0.7 ratio
B16 | 111 % of control (=100) | –
B17 | 110 % of control (=100) | –
B18 | – | He/Con_2b [1]: 218 % of control (=100); He/Con_1a [2]: 101 % of control (=100); He_1a/2b (Ia/IIb) [3]: 0.46 ratio
B19 | 110 % of control (=100) | –
B20 | 104 % of control (=100) | –
